In the nanobody polyreactivity screen of Harvey et al. (2022):

Assay: yeast display, Sf9 membrane polyspecificity reagent, FACS + sequencing; frameworks hold sequencing errors
Procedure, shortened: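 Genes from sorted yeast were amplified by colony PCR, read by MiSeq 2 × 250 sequencing and filtered on CDR length. These cells carried a synthetic nanobody library in Saccharomyces cerevisiae BJ5465 and were sorted by FACS into low and high (top ~1%) gates on anti-HA and streptavidin fluorescence. Polyreactivity is labelled according to the gate of origin.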

Row | Sequence | polyreactivity (PSR sort gate)
1 | QVQLEESGAGLVQAGGRLRLSCAASGITFILYAMGWYRHAPGKERELVAAISSGGRTKYADSEKGRFTISRDNAKNTVYLQMTSLKPEDTAVYYCNVSYLVYRWNFGWSMDYWGQGTQVTVSS | low polyreactivity
2 | QVQLEESGAGLVQAGGSLRLSCAASGRTFYRYAMGWYIQAPGKERELVAAITSGDRTYYADSVKGRFTISRDNALNTVYLQMNSLKPEYTAVYYCAARRDYWARYYYWGQGTQVTVSS | high polyreactivity
3 | QVQLEESGAGLVQAGGSLRLSCAASGYIFDKYTLGWYRQAPGKERELVAVISSRGGSTYYADSVKGRFTISRDNAKNTVYVQMNSRKPEDTAVYYCAARFYRPSVPYRYDYWGQGTQVTVSS | high polyreactivity
4 | QVQLEESGGAFVQAGGSLRLSCAASGFIFVPYSMGWYREAPGKEREFVAAITASGGNTYYADSVKGRFSISRDNAKNTVYLQMNSVKPEDTAVYYCAADISGSLESLDYWGQGTQVTGSS | low polyreactivity
5 | QVQLEESGGAIVQAAGSLRLSCAASGLIFAWYALGWYRPAPGKERELVATISWNGDRTYYADSVKGRFTISRDNAKNTVYLQMNSLKPEDTAVYYCAARFGSGFNYWGKGTQVTVSS | high polyreactivity
6 | QVQLEESGGALVQAGGSLRLSGAASVSTFAYYAMGWYRQAPGKERELVAAISWSGGSTYYADSVKGRFTISRDNAKNTVYLLMNSLKPEDTAVYYCNKRNVLDYDYWGQGTQVTVSS | low polyreactivity
7 | QVQLEESGGCLVQAGGSLRLSCAASGFTFYQNAMGWYRQAPGKERELVAAISSGASTYYADSVKGRFTISRDNAKNTVYLQMNSLKPEDTAVYYCAADRYKPSLRWRRPKMNYWGQGTQVTVSS | high polyreactivity
8 | QVQLEESGGCLVQAGGSLRLSCAASGRIFGSYTMGWYRQAPGKERELVAAISDSGGSTYYADSVKGRFSISRDNAKNTVYLQMNSLKPEDTAVYYCNADWSWYNYYDFDYWGQGTQVTVSS | low polyreactivity
9 | QVQLEESGGGFVQAGGSLRLSCAASGFIFSSNAMGWYRQAPGKERELVASISSGGSTNYADSVKGRFTISRDNAKNTVYLQMNSLKPEDTAVYYCAADGISLYATAYDYWGQGTQVTVSS | low polyreactivity
10 | QVQLEESGGGIVQAGGSLRLSCAASGRIFYHYAMGGYRKAPGKEREWVAAISGSGGSTYYADSVKGGFTISRYNAKNTVYLQMNSLNPEDTAVFYCSTSGPQYYARNFDYCGQGTQVTVSS | low polyreactivity
11 | QVQLEESGGGIVQAGGSLRLSCAASGSTFVLYAMGWYRPAPGKERELVAAITSGGSTYYADSVKGRFTISRDNAKNTVYLQMNSLKPEDTAVYYCAASYWDTEPGYREYDYWGQGTQVTVSS | low polyreactivity
12 | QVQLEESGGGLDQAGGSLRLSCAASGRIFFYNAMGWYRQAPGKERELVAGISRSGTSTYYADSVKGRFTNSRDNAKNTVFLQMNSLKPEDTAVYYCAAAAWSVILWREMDYWGQGTQVTVSS | low polyreactivity
13 | QVQLEESGGGLDQAGGSLRLSCAASGSTFYKNAMGWYRQAPGKERELVARISGRGGSTDYADSVKGRFTISRDNAKNTVYLQMNSLKPDDTAVYYCNAGKYSSSDALYDYWGQGTQVTVSS | high polyreactivity
14 | QVQLEESGGGLFQAGGSLRLSCAASGRTFPGNAMGWYRQAPGKERELVAAISYSGGRTYYADSVKGRFTISRDNAKNTVYLQMNSLKPEDTAVYYCNAWARLGRYEYWGQGTQVTVSS | high polyreactivity
15 | QVQLEESGGGLGQAGGSLRLSCAASGSIFAYYAMGWYRQAPGKERELVAAISWGGGNTYYADSVKGRFTISRDNAKNNVYLQMNSLKPEDTAVYYCAAEDYYYYGVAYGYWGQGSQVTVSS | high polyreactivity
16 | QVQLEESGGGLVHAGGSLRLSCAASGFTFKYNAMGWYRQAPGKEREFVASISSGSTNYADSVKGRFTISRDNAKNTVYLQMNSLKPEDTAVYYCAASVSRGKRFRYGYVFKMDYWGQGTQVTVSS | low polyreactivity
17 | QVQLEESGGGLVQAGCSLRLSCADSGITFGGNAMGWYRQAPGKERDLVAAIDEGGGSTYYADTVKGRFTLSRDNAKNTVYLQMHSLKPEPTAVDYCAADFGYYGYYYWGQGTQVTVST | low polyreactivity
18 | QVQLEESGGGLVQAGGILRLSCAASGSMFVAYTMGWYRQEPGKERELVAAISRGGSTNYADSVKGRFTISRDNAKTTVYLQMNSLKPEDTAVYYCAAKVWDGQLLYYWGQGTQVTVSS | low polyreactivity
19 | QVQLEESGGGLVQAGGILRLSCAFYYGIGWYRQATGKERELVAAINLGGGSTYYADSVKGLFTISRDNAKNTVYLQMNSLKPEDTAVYYGAADVGSRTYYVKYDYWGQGTEVTVSS | low polyreactivity
20 | QVQLEESGGGLVQAGGRLRLSCAASGRIFSRNAMGGSRTATGKERELVAAISSSTGSTYYADSVKGRFTISRDNAKKTVYLQMNSLKPEDTAVYYCAARYWGDYFTEMNYWGQGTQVTVSS | high polyreactivity
21 | QVQLEESGGGLVQAGGSIRLSCAASGSTFYTNAMGWYRQAPGKERELVAAISSSGDSTYYADSVKGRFTISRDTAKNTVYLQMNSLKPEDTAVYYCNADRRSYNGFRYYYWGQGTQVTVSS | low polyreactivity
22 | QVQLEESGGGLVQAGGSIRLSCAASVSTFVGNAMGWYRKAPGKETEFVATISNSGGRTYYADSVKGRFTISRDNSKNTVYLQMNSLKPEDTAVYFCAADHPAFCPGYSFDYWGQGTQVTVTS | low polyreactivity

Row | Sequence | polyreactivity (PSR sort gate)
23 | QVQLEESGGGLVQAGGSLRFSCAASGRIYRYAMGWYRQAPGKERELVASITYSGGSTYYADSVKGRFTISRDNAKNTVYLQMNSLKPEDTAVYYCAASTRHVHYGYWGQGTQVTVSS | high polyreactivity
24 | QVQLEESGGGLVQAGGSLRISCAASGRTFNYNAIGWYRQAPGKERELVAAITSGGRTNYADSVKGRFTISRDNAKNTVYLQMNSLKPEDTAVYYCATEYYRYRWVGAFRYPVYYWGQGTQVTVSS | low polyreactivity
25 | QVQLEESGGGLVQAGGSLRLICAASGCIFEYNAMGWSRQAPRKEREFVAAINNSGGRTYYADSVKGRFTISRDNANNTVYLQMNSLKPEDTAVYYCAVYSYYRRTYRREMDYWGQGTQVTVSS | high polyreactivity
26 | QVQLEESGGGLVQAGGSLRLRCAASGRTFGYYAMGWYRQAPGKERQLVASITSGGRTYYADSVKGRFTISRDNSKNTVYLQMNSLKPEDTAVFYCAADRFGIGGKSGNDYWGQGTQVTVSS | high polyreactivity
27 | QVQLEESGGGLVQAGGSLRLSCAASGCTLTDYAMGWYIQAPGKERELVAAISSVGSTNYADSVKGRFTISRDNAKNTVYLQMNSLKPEDTAVYYCAVDYGRAVQGDSITYDFNYWGQGTQVNVSS | low polyreactivity
28 | QVQLEESGGGLVQAGGSLRLSCAASGFIFPHYTMGWYRQAPGKERELVAAISSSGGSTYYADSVKGRFTISRDNAKKTVYLQMNSLKPEDTAVYYCPGPLPYYGQYDYWGQGTQVTVSS | low polyreactivity
29 | QVQLEESGGGLVQAGGSLRLSCAASGFIFQYNAMGWYRQAPGKEREFVDAINYSGGNTYYADSVKGRFTISRDTAKNTVYLQMNSLKPEDTAVYYCNVRLWYGRWWYNRYNYWGQGTQVTVSS | high polyreactivity
30 | QVQLEESGGGLVQAGGSLRLSCAASGFIFYQYAMGSYRQAPGKVRELVAAISWNGGRTYYADSVKGRFTISRDNAKNTVYLQMNSLKPEDTAVYYCAAPVLTSDYTLDSYYWGQGTQVTVSS | high polyreactivity
31 | QVQLEESGGGLVQAGGSLRLSCAASGFILEYYAMGWSRQATGKETELVSTISSGGSTNYADSVKGRFTISSDNAKNTVYFQMNRLKPEDTAVFYCAAARYTLSRYYYWGQGTQLTVSS | high polyreactivity
32 | QVQLEESGGGLVQAGGSLRLSCAASGFILTGNVMGWYRQAPGKEREFVAGISRSGGTYYADSVKGRFTISRDNAKNTVYLQMNSLKPEDTAVYYCAAKPIYYSRGYYWGQGTQVTVSS | high polyreactivity
33 | QVQLEESGGGLVQAGGSLRLSCAASGFTFALYAMGWYRPAPRNEMEFVAAISRRGGSTYYADSVKGRFTISRDNAKNTVYLQMNSLKPEDTAVYYCAANYPFGVYHGAPYGYWGQGTQVTVSS | high polyreactivity
34 | QVQLEESGGGLVQAGGSLRLSCAASGFTFAYYAMGWYRQAPGKERELVAGISWRGGRTYYADSVKGRFTISRDNAKNTVYLQMNSLKPEDTAVYYCNARNSYRPGRGYDYGGQGTQVTVSS | high polyreactivity
35 | QVQLEESGGGLVQAGGSLRLSCAASGFTFRRYDMGWYRQAPGKERELVATINRGGSTDSADSVKGRFTISRDNAKNTVYLQMNSLKPEDTAVYYCATRYYSSRTWSEYYYWGQGTQVTVSS | high polyreactivity
36 | QVQLEESGGGLVQAGGSLRLSCAASGFTFSHNAMGWYIQAPGKERELVAAITRDSGSTYYADSVKGRFTISRDNAKNTVYLQMNSLTPEDTAVYYCAADIASGYYWYDYWGQGTQVTVSS | low polyreactivity
37 | QVQLEESGGGLVQAGGSLRLSCAASGFTFWRYGMGWYRQAPRKERELVASITSGGGTNYADSVKGRFTISRDNAKNTVYIQMNSLKPEDTAVYYCNAVFFYHGTKPAFISHDYWGQGTQVTVSS | low polyreactivity
38 | QVQLEESGGGLVQAGGSLRLSCAASGGIFLGYAMGWYRQAPGTERELVAAISDSGGSTDYADSVKGRFTISRDHAKTTVYLQTHSLKPDDTAVYYCAAERRSTAGWLYDYWGQGTQVTVSS | high polyreactivity
39 | QVQLEESGGGLVQAGGSLRLSCAASGGTFAQYVMGWYRQAPGKERELVAAISRTGGRTYYADSVKGRFTISRDNAKNTVYLQMNSLKPEDTAVYYCARVYTSYGTPWTNYDYWGQGTQVTVSS | high polyreactivity
40 | QVQLEESGGGLVQAGGSLRLSCAASGGTFYAYAMGWYRQAPGKERELVAAITRSGGRTYYADSVKGRFTISRDNAKNTVYLQMNSLKPEDTAVYYCAADPHHYSGLDYWGQGTQVTVSS | low polyreactivity
41 | QVQLEESGGGLVQAGGSLRLSCAASGIIFGRYTMGWYREAPGKERELVAAITSSGITYYADSVKGRFTISRDNAKNTVYLQMNSLKPEDTAVYYCAADSPVSVTADDGYWGQGTQVTVSS | low polyreactivity
42 | QVQLEESGGGLVQAGGSLRLSCAASGIIFQRNDMGLYRQAPGKERELVANIRDGGITYADSVKGRFTISRDNAKNTVYLQMNSLKPEDTAVYYCARDDTSPGYCDQSSNAAYYYWGQGTQVTVSS | low polyreactivity
43 | QVQLEESGGGLVQAGGSLRLSCAASGIIFWYYAMGWSRQAPGKERELVAAINSGDSTNYADSVKGRYTISRDNAKNTVYLQMNSLKPEDTAVYYCATVSSYTGGYWGQGTQVTVSS | low polyreactivity
